T1: FcγRIIb (human, UniProt P31994 43-217)
T1 construct: extracellular domain; also called FcgRIIb; 2b
T1 sequence (looked up): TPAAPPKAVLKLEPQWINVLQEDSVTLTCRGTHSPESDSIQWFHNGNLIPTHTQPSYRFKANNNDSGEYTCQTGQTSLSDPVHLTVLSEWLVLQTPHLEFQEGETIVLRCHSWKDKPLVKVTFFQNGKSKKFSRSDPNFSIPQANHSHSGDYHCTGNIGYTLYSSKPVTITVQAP

T2: FcγRIIa H (FcγRIIa, type H allotype, His at position 131), extracellular domain with C-terminal His tag (human, UniProt P12318 34-217)
T2 construct: extracellular domain; Soluble receptor expressed in FreeStyle293 cells; analyte in Biacore; also called FcgRIIa H; 2aH; not shown: C-terminal His tag
T2 sequence (looked up): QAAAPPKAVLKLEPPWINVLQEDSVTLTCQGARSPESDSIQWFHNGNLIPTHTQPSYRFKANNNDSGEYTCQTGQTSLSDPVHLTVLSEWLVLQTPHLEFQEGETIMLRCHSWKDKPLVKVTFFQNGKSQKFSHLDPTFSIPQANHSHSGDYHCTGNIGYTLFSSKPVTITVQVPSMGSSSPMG

T3: FcγRIIb, extracellular domain with C-terminal His tag (human, UniProt P31994 43-217)
T3 construct: extracellular domain; Soluble receptor expressed in FreeStyle293 cells; analyte in Biacore; also called FcgRIIb; 2b; not shown: C-terminal His tag
T3 sequence (looked up): T1 sequence (looked up)

B1: GpH7-A5/GpH7-B3 variant D265_15Y/GpL16-k0 (antibody, human IgG1, kappa)
heavy 1: not shown
heavy 2: not shown
light: DIVMTQSPLSLPVTPGEPASISCQASESLVHSNRNTYLHWYLQKPGQSPQLLIYKVSNRFSGVPDRFSGSGSGTDFTLKISRVEAEDVGVYYCSQNTHVPPTFGQGTKVEIERTVAAPSVFIFPPSDEQLKSGTASVVCLLNNFYPREAKVQWKVDNALQSGNSQESVTEQDSKDSTYSLSSTLTLSKADYEKHKVYACEVTHQGLSSPVTKSFNRGEC
notes: heterodimerized antibody, mutation in the GpH7-B3 chain only; also called He Ab
B2: GpH7-A5/GpH7-B3 variant D270_01G/GpL16-k0 (antibody, human IgG1, kappa)
heavy 1: not shown
heavy 2: not shown
light: B1 light
notes: Heterodimerized IgG1; mutation only in the GpH7-B3 chain; also called He Ab
B3: GpH7-A5/GpH7-B3 variant D270_07I/GpL16-k0 (antibody, human IgG1, kappa)
heavy 1: not shown
heavy 2: not shown
light: B1 light
notes: as for B2
B4: GpH7-A5/GpH7-B3 variant D270_15Y/GpL16-k0 (antibody, human IgG1, kappa)
heavy 1: not shown
heavy 2: not shown
light: B1 light
notes: as for B2
B5: GpH7-A5/GpH7-B3 variant D270_19Q/GpL16-k0 (antibody, human IgG1, kappa)
heavy 1: not shown
heavy 2: not shown
light: B1 light
notes: as for B2
B6: GpH7-A5/GpH7-B3 variant S267_09D/GpL16-k0 (antibody, human IgG1, kappa)
heavy 1: not shown
heavy 2: not shown
light: B1 light
notes: heterodimerized IgG1, mutation in one H chain only; also called He Ab
B7: GpH7-A5/GpH7-B3 variant D270_12R/GpL16-k0 (antibody, human IgG1, kappa)
heavy 1: not shown
heavy 2: not shown
light: B1 light
notes: as for B2
B8: GpH7-A5/GpH7-B3 variant D270_11K/GpL16-k0 (antibody, human IgG1, kappa)
heavy 1: not shown
heavy 2: not shown
light: B1 light
notes: as for B2
B9: GpH7-A5/GpH7-B3 variant D270_06M/GpL16-k0 (antibody, human IgG1, kappa)
heavy 1: not shown
heavy 2: not shown
light: B1 light
notes: as for B2
B10: GpH7-A5/GpH7-B3 variant D270_04F/GpL16-k0 (antibody, human IgG1, kappa)
heavy 1: not shown
heavy 2: not shown
light: B1 light
notes: as for B2
B11: GpH7-A5/GpH7-B3 variant D270_08L/GpL16-k0 (antibody, human IgG1, kappa)
heavy 1: not shown
heavy 2: not shown
light: B1 light
notes: as for B2
B12: GpH7-A5/GpH7-B3 variant S337_09D/GpL16-k0 (antibody, human IgG1, kappa)
heavy 1: not shown
heavy 2: not shown
light: B1 light
notes: as for B6
B13: GpH7-A5/GpH7-B3 variant S239_09D/GpL16-k0 (antibody, human IgG1, kappa)
heavy 1: not shown
heavy 2: not shown
light: B1 light
notes: as for B6
B14: GpH7-A5/GpH7-B3 variant V266_12R/GpL16-k0 (antibody, human IgG1, kappa)
heavy 1: not shown
heavy 2: not shown
light: B1 light
notes: as for B1
B15: GpH7-A5/GpH7-B3 variant E269_03V/GpL16-k0 (antibody, human IgG1, kappa)
heavy 1: not shown
heavy 2: not shown
light: B1 light
notes: as for B2
B16: GpH7-A5/GpH7-B3 variant E269_12R/GpL16-k0 (antibody, human IgG1, kappa)
heavy 1: not shown
heavy 2: not shown
light: B1 light
notes: as for B2
B17: GpH7-A5/GpH7-B3 variant S267_02A/GpL16-k0 (antibody, human IgG1, kappa)
heavy 1: not shown
heavy 2: not shown
light: B1 light
notes: as for B6
B18: GpH7-A5/GpH7-B3 variant T335_10E/GpL16-k0 (antibody, human IgG1, kappa)
heavy 1: not shown
heavy 2: not shown
light: B1 light
notes: as for B6
B19: GpH7-A5/GpH7-B3 variant E269_06M/GpL16-k0 (antibody, human IgG1, kappa)
heavy 1: not shown
heavy 2: not shown
light: B1 light
notes: as for B2

Legend:
[1] = target: T1, FcγRIIb; test: SPR (Biacore), antibody captured, FcγR as analyte; relative binding
Experimental: The heterodimerized antibodies He Abs in which one of the H chains was introduced with an alteration were assayed for their binding activities to each activating FcγR and inhibitory FcγR according to the method described in Example 4. […] The activating FcγRs in FIGS. 26, 27, 28, and 29 are FcγRIa, FcγRIIa (R), FcγRIIa (H), and FcγRIIIa, respectively.
Analysis of interaction between objective antibody and the FcγR was carried out using Biacore T100 (GE Healthcare). HBS-EP+ (GE Healthcare) was used as the running buffer, and the measurement temperature was set to 25° C. Chips produced by immobilizing the antigen peptide by the amine coupling method to a Series S Sencor Chip CM5 (GE Healthcare), or alternatively, chips produced by allowing preliminarily biotinylated antigen peptides to interact with and immobilize onto a Series S Sensor Chip SA (certified) (GE Healthcare) were used. Antibodies of interest were captured onto an antigen peptide-immobilized chip, and allowed to interact to each FcγR diluted with running buffer. To regenerate and repeatedly use the chip, the antibodies captured on the chip were washed off by reacting 10 mM glycine-HCl, pH 1.5.

[2] = target: T2, FcγRIIa H (FcγRIIa, type H allotype, …); test: SPR (Biacore), captured antibody, FcγR as analyte
[3] = target: T3, FcγRIIb, extracellular domain with …; test: SPR (Biacore), captured antibody, FcγR as analyte
[4] = target: T2, FcγRIIa H (FcγRIIa, type H allotype, …); test: ratio of He/Con_2aH to He/Con_2b (FcγRIIa H over FcγRIIb), SPR
[5] = target: T4, FcγRIIIa extracellular domain with C-terminal His tag (human, UniProt P08637 17-208); test: SPR, relative to GpH7-A5/GpH7-B3/GpL16-k0
T4 construct: extracellular domain; also called FcgRIIIa; 3a
T4 sequence (P08637 17-208): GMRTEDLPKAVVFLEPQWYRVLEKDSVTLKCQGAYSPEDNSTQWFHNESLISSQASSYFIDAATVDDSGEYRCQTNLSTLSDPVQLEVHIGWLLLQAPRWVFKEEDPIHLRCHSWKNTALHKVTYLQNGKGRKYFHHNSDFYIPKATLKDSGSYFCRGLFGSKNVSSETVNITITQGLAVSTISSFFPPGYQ

Binder | He/Con_2b (IIb binding) [1] | He/Con_2aH [2] | He/Con_2b [3] | He_2aH/2b (IIaH/IIb) [4] | He/Con_3a [5]
B1 | 0.6 % of GpH7-A5/GpH7-B3/GpL16-k0 (=100) |  |  |  | 
B2 |  | 52.5 relative, GpH7-A5/GpH7-B3/GpL16-k0 = 100 | 30.5 relative, GpH7-A5/GpH7-B3/GpL16-k0 = 100 | 1.72 | 
B3 |  | 64 relative, GpH7-A5/GpH7-B3/GpL16-k0 = 100 | 41.5 relative, GpH7-A5/GpH7-B3/GpL16-k0 = 100 | 1.54 | 
B4 |  | 71.9 relative, GpH7-A5/GpH7-B3/GpL16-k0 = 100 | 44.9 relative, GpH7-A5/GpH7-B3/GpL16-k0 = 100 | 1.6 | 
B5 |  | 85 relative, GpH7-A5/GpH7-B3/GpL16-k0 = 100 | 48 relative, GpH7-A5/GpH7-B3/GpL16-k0 = 100 | 1.77 | 
B6 |  |  |  |  | 181 % of control (=100)
B7 |  | 39.5 relative, GpH7-A5/GpH7-B3/GpL16-k0 = 100 | 18.3 relative, GpH7-A5/GpH7-B3/GpL16-k0 = 100 | 2.16 | 
B8 |  | 44 relative, GpH7-A5/GpH7-B3/GpL16-k0 = 100 | 20.3 relative, GpH7-A5/GpH7-B3/GpL16-k0 = 100 | 2.17 | 
B9 |  | 74.4 relative, GpH7-A5/GpH7-B3/GpL16-k0 = 100 | 48.2 relative, GpH7-A5/GpH7-B3/GpL16-k0 = 100 | 1.54 | 
B10 |  | 75.4 relative, GpH7-A5/GpH7-B3/GpL16-k0 = 100 | 53.1 relative, GpH7-A5/GpH7-B3/GpL16-k0 = 100 | 1.42 | 
B11 |  | 75.8 relative, GpH7-A5/GpH7-B3/GpL16-k0 = 100 | 53.6 relative, GpH7-A5/GpH7-B3/GpL16-k0 = 100 | 1.41 | 
B12 |  |  |  |  | 110 % of control (=100)
B13 |  |  |  |  | 166 % of control (=100)
B14 | -1.1 % of GpH7-A5/GpH7-B3/GpL16-k0 (=100) |  |  |  | 
B15 |  | 67.5 relative, GpH7-A5/GpH7-B3/GpL16-k0 = 100 | 45.1 relative, GpH7-A5/GpH7-B3/GpL16-k0 = 100 | 1.49 | 
B16 |  | 46.8 relative, GpH7-A5/GpH7-B3/GpL16-k0 = 100 | 25.2 relative, GpH7-A5/GpH7-B3/GpL16-k0 = 100 | 1.86 | 
B17 |  |  |  |  | 150 % of control (=100)
B18 |  |  |  |  | 107 % of control (=100)
B19 |  | 73.6 relative, GpH7-A5/GpH7-B3/GpL16-k0 = 100 | 46.7 relative, GpH7-A5/GpH7-B3/GpL16-k0 = 100 | 1.58 | 

— patent US20180155451A1 (published 2018)
